From patent publication US20140314780A1, “Compositions Using Antibodies Directed to GPNMB and Uses Thereof” (Celldex Therapeutics, Inc., priority 2008, published 2014)

Target: T1, GPNMB (Homo sapiens, UniProt Q14956)
T1 construct: V5His; made in house
T1 sequence (Q14956 23-492): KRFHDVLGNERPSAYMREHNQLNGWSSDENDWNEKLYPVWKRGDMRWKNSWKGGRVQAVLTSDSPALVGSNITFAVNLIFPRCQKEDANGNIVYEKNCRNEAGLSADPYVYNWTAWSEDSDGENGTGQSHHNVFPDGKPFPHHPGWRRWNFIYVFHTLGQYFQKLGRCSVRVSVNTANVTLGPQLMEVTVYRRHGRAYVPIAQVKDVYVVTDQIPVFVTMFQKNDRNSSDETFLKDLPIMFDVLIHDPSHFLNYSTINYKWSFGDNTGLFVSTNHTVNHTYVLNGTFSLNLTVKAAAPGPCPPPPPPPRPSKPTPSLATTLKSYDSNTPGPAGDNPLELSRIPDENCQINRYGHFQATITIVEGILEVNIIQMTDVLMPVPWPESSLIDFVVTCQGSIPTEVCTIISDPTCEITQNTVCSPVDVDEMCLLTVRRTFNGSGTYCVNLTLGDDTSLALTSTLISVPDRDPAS
Assay: Epitope binning of anti-GPNMB antibodies (competitive binding)
Conditions: six anti-GPNMB antibodies, three bins
Source text: Certain antibodies, described herein were binned in accordance with the protocol described in U.S. Patent Application Publication No. 20030157730. […] Competitive binding by antibodies from […] supports antibody specificity for similar or adjacent epitopes. Non competitive binding supports antibody specificity for unique epitopes.
Three bins were created to further test the binding of six anti-GPNMB antibodies. Bin 1 included GPNMB antibodies (1.2.1), (1.10.1), and (2.22.1). Bin 2 included GPNMB antibodies (2.3.1) and (1.15.1), and Bin 3 included GPNMB antibody (2.10.1). The results of the binning assays are provided below in Tables 4 and 5.

B1: Mab2.22.1: human anti-GPNMB antibody; VH SEQ ID NO: 164, VL SEQ ID NO: 173 (antibody, listed as Homo sapiens, V domains shown)
VH: QVQLEQSGPGLVKPSQNLSLTCTVSGGSISSGGYFWSWIRQHPGKGLEWIGYIYYSGNTYYNPSLKSRVTISVDTSKNQFSLKLSSVTAADTAVYYCARDYYYDTSGFSYRYDWYYGMDVWGQGTTVTVSSA
VL: DIQLTQSPSSLSASVGDRVTITCRASQGIRNDLGWYQQKPGKAPKRLIYAASSLQNGVPSRFSGSGSGTEFTLTISSLQPEDFATYYCLQHNTYPAFGQGTKVEIKR
epitope bin: Bin 1
